# In publication PMC11339404:
# T1: SWSAP1-SWS1 (human, UniProt Q6NVH7;Q19AV6 1-250;1-140)
# T1 sequence 1: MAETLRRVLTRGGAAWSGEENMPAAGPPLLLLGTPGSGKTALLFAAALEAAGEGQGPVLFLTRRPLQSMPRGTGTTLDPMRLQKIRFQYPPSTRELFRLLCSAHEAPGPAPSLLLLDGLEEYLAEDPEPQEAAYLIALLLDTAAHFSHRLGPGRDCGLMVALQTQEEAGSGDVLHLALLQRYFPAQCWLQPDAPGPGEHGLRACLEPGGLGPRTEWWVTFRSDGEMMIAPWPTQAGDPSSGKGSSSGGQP
# T1 sequence 2: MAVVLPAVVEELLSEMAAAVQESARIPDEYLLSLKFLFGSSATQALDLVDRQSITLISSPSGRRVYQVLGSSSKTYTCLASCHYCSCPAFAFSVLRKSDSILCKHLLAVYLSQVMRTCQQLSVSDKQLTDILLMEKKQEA
# B1: Cy3-dT60-Cy5 (ssDNA)
# DNA: TTTTTTTTTTTTTTTTTTTTTTTTTTTTTTTTTTTTTTTTTTTTTTTTTTTTTTTTTTTT
# Legend:
# Experiment in all cases: FRET
# SWSAP1-SWS1 = molecular target: T1, SWSAP1-SWS1
# RPA = RPA (human, UniProt P27694;P15927;P35244 1-616;1-270;1-121)
# Sequence of RPA (P27694 whole entry, chain 1 of 3): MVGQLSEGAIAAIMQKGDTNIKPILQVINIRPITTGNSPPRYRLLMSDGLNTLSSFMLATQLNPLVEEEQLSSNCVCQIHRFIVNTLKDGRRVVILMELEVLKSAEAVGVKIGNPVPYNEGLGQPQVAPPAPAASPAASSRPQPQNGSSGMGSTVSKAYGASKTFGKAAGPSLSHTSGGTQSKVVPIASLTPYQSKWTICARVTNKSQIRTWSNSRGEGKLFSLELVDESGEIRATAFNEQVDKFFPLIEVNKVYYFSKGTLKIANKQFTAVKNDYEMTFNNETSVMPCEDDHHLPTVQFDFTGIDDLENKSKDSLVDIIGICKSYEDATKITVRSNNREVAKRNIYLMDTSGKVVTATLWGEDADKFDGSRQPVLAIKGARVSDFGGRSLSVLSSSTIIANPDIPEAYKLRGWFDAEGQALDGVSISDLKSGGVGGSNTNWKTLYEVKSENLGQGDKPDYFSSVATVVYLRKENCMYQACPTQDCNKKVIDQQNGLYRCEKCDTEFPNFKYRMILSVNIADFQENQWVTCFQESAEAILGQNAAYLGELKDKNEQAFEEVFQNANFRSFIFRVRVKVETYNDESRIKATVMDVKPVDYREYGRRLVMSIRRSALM
# Sequence of RPA (P15927 whole entry, chain 2 of 3): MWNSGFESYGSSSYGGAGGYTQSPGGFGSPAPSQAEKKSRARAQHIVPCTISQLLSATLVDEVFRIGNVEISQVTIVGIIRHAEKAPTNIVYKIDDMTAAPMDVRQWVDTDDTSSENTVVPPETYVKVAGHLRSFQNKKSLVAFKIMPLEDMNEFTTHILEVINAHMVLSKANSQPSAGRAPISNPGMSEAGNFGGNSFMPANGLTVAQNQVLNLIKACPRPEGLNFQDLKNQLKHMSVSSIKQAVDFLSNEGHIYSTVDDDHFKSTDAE
# Sequence of RPA (P35244 whole entry, chain 3 of 3): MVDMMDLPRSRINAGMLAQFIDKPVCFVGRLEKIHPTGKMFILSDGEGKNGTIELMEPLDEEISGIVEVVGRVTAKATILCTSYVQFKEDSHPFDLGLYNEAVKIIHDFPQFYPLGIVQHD
# RAD51;SWSAP1-SWS1 = RAD51;SWSAP1-SWS1 (human;human, UniProt Q06609;Q6NVH7;Q19AV6 1-339;1-250;1-140, |)
# Sequence of RAD51;SWSAP1-SWS1 (Q06609 whole entry, one chain of several): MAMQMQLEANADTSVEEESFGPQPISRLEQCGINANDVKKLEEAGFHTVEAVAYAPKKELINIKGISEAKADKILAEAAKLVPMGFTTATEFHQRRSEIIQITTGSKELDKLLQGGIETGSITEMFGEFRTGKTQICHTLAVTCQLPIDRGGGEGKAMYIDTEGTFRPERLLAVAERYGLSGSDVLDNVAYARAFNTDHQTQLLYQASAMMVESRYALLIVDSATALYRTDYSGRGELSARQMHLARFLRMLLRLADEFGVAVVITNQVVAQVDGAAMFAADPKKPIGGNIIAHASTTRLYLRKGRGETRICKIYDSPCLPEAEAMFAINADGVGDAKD
# RAD51 = RAD51 (human, UniProt Q06609 1-339)
# Sequence of RAD51 (Q06609 whole entry): as the sequence (Q06609 whole entry, one chain of several) above
binder,measurement,setting,value
B1,binding result,SWSAP1-SWS1,no binding
same,binding result,RPA,binds
same,binding result,RAD51;SWSAP1-SWS1,binds
same,binding result,RAD51,binds
